assay: soluble on expression in E. coli; label from the status in PepcDB or PDB records

Soluble on expression in E. coli, not soluble:
MLRTFRIGGIHPPENKLSAGKPVEVLPIPSQVVIPLGQHIGAPATATVKKGDEVKVGTIIAQAGGFVSANIHSSVSGKVLKIDNVYDSSGYPKPAVFISVEGDEWEEGIDRSPAIVKECNLDAKEIVAKISAAGIVGLGGATFPTHVKLSPPPGNKAEILIINAVECEPYLTSDHVLMLEHGEEIMIGVSILMKAIQVNKAVIGVENNKKDAIAHLTKLATAYPGIEVMPLKVQYPQGGEKQLIDAVIRKQVKSGALPISTGAVVQNVGTVFAVYEAVQKNKPLVERIVTVTGKKLSRPSNLLVRIGTPIAALIEAAGGLPENTGKIIGGGPMMGRALLSPDVPVTKGSSGVLILDREEAVRKPMRDCIRCAKCVGVCPMGLNPAFLMRDTLYKSWETAEKGNVVDCIECGSCSFTCPANRPLLDYIRQAKKTVMGIQRARKQLEHHHHHH, MLRVLVRTGSEACRAVSTSTAVLSVHPVVKSEDLSAKEIWDRRSKLRVPKLQKDEQLSSKVYFAPEWDLEKKPNLDEGFVNPLKGYGMTPEKWEYYNKVVWPPNYIVPETGLPKPKEVFHCKESVHFSPKRMWAACQLVWKMNVDEAITQLDMQQLKACNLLMDTIKKAKSRAADEFHIEYPSQMYVADAFPVQSNIVKGARRHAHDNWNTIRYRYIHIFVRLEEGPAPQQKQRHPQKNGWDHMDEYYNYLRSRTVKYSI, MLSDIQHDQFGFIKGCIISVIWLSLSRTLNRDQLNLDRFEFWQPTSQLLVLDVCLFDAFALEHHHHHH, MLSEQLLAQQHLPEKLKKNIPGLYFHGRVGRGKTMLMDLFYQHLAIKNKKRIHFHHFMESVHQQLAQLTGQSEPLSHIAAKWAQNIDLLCFDEFYVSDIGDAMLLSGLFSALFKQGVTLVATSNCQPEQLYRNGLQRERFLPTIALINQHCQIVSINGDVDHRRTKLSKNSCYNNYFLLANEGNEKLIERFQSLTDAEMLVSGEIEINHRQLCYLAQSANVIFFDFFALCSGPRSQRDYMVLAKDFDTVCIANVPKFSGELVPAVFSGVEDSYQRSGVLMGELQQLDDEARRFIALVDEFYDQNVKLIVSAQVDIFELYQGQQLAFEFERCQSRLIEMQQSLEHHHHHH, MLSKSKRSCRRRETLRIGEKMSAPITNLQAAQRDAIMNRPAVNGFPHLAETLRRAGVRTNTWWLPAMQSLYETDYGPVLDQGVPLIDGVAEVPAFDRTALVTALRADQAGQTSFREFAAAAWRAGVLRYVVDLENRTCTYFGLHDQTYMEHYAAVEPSGGAPTS, MLSPQTTQVAIIGAGPSGSIAAALLNKHNINCIILEKSTFPRFSIGESLLPACMESIKHAGMLNAVEDACFQFKDGAAFHCNGTFTSFDFTDKFTDGAGTTFQVQRGNFDKVLADCAKEQGVEIRYQHEITDVDVNAEKPLLSVLDENGTPYQIQADFILDASGFGRVLPKLLELEEPSCLPPRRAIFTHIKDNITDESYDRNKILVSVHPTNTQVWYWLIPFSNGTCSFGVVGEPEFFDAYSEDKVTALKQLAEEESNLKHLLNQAEYPNPCGEIMGYSANVSKLFDKNFALLGNAGEFLDPVFSSGVTIAMKSAELAADLLIKQFNQEDVNWQQDYSDKLMKGVNAFRCYVEGWYEGTFQDVIFHENPNPKIKQMICAILAGYAWDESNPFVAEPERRLKVVAELCKPLEHHHHHH, MLSVFPLAGMSLASLHYSTHRVDQTQVYMVAAPMADYRVVMTEPAASGQDTYLETTAAFARRTGAVAAMNTNFFRWLNAQSLRSFQDYQKWIMGESNPEGISYRALRQTCLSGRGTIPAGVAGAYIVNGRVVRPYEGGYSGIVNFPAQGGIEFYRGRLPEQPFNVVSGSQQLLDGGRKLPVDGSDRTSPKAILGRRGNEYVFVVSDGRGNGGSPGLSFLQLQDFLLQQGVTEATAMDGGESATLVVEGQVKNHPRDRYCELARWLPAPALTLINLEEEAQETAMAMGRSLRPVGANIGLVPRHRPPAFLSFAFWEFLQQRLLARLRAWRDAVLEHHHHHH, MLTEIGKIIRQRRQQHGITIEQLAEQSNVSISLISRLERGKVDNIKLQSLTAIAETLNLKIADFFRDELLQSPNVVALLDYLSDLPAHQREELAGTLLKLLRLSKS

Soluble on expression in E. coli, soluble:
MLSVIIITKNEEANIRRCLESVHFADEIIVLDSGSTDNTLAIAREYTDKVFSTDWQGYGIQKDRALQKAQGDWVLNLDADESVSSELRQEILQAISSDTADAFRIPIQMIFYNQVLKYSGSPKRHIRLFKRENASYSKDIVHEKVLIPVNARVGKLKKPIWHHSFSDVHHVLYKLNKYSSYSAKIRIESNEKVGLVKTFFSALWMFVRCLFLQKGFLDGRAGFLFAVFGAQGAFYRGVKQIYKDRDINKLPSVNHIKEELEHHHHHH
